{"source": "patent US8747397B2", "about": "“Cryotreatment pellet” (CPSI Holdings LLC, priority 2009, dated 2014)", "origin": "cited, not measured here", "molecules": {"B1": {"name": "TNF-Related Apoptosis-Inducing Ligand (protein, UniProt P50591 1-281, looked up)", "Tumor necrosis factor ligand …": "MAMMEVQGGPSLGQTCVLIVIFTVLLQSLCVAVTYVYFTNELKQMQDKYSKSGIACFLKEDDSYWDPNDEESMNSPCWQVKWQLRQLVRKMILRTSEETISTVQEKQQNISPLVRERGPQRVAAHITGTRGRSNTLSSPNSKNEKALGRKINSWESSRSGHSFLSNLHLRNGELVIHEKGFYYIYSQTYFRFQEEIKENTKNDKQMVQYIYKYTSYPDPILLMKSARNSCWSKDAEYGLYSIYQGGIFELKENDRIFVSVTNEHLIDMDHEASFFGAFLVG", "notes": "cytotoxic agent, apoptosis-inducing ligand applied in combination with freezing"}}, "test_system": "prostate cancer cell"}
{"molecule": "B1", "values": [{"measurement": "cell death", "setting": "sub-lethal dose applied in vitro in combination with freezing", "value": "complete prostate cancer cell death occurs"}, {"measurement": "critical death temperature", "setting": "sub-lethal dose in combination with freezing, reduced from −40° C. (freezing alone)", "value": "−10", "unit": "°C"}]}
